What was measured:
Assay in all cases: BLI
Conditions in all cases: both partners purified
bat RaTG12-CoV RBD = bat RaTG12-CoV RBD (Bat coronavirus RaTG13 (printed as …, UniProt A0ABF7PLN6))
[1] = target: T1, SARS-CoV-2 RBD (residues 319-541), ancestral strain (SARS-CoV-2, UniProt P0DTC2)
T1 construct: source: Expi293, purified (Talon resin)

SARS-CoV-1 RBD = SARS-CoV-1 RBD (SARS-CoV (SARS-CoV-1), isolate not …, UniProt P59594)

Measured: binding result

B1: GAR03, human IgG1 monoclonal antibody (antibody, V domains shown)
VH: QVQLVQSGAEVKKPGASVKVSCKASGYTFSSYDINWVRQAPGQGLEWMGWMSPNSGNTGYAQKFQGRVTMTRSTSMSTAYMELSSLRSEDTAVYFCARMSSSLTNYLDYWGQGTLVTVSS
VL: SYVLTQPPSVAVAPGQTARIRCGENDIGSKNVHWYQQKSGQAPVLVVYDDSDRPSGIPERFSGSNSGNTATLTISRVEAGDEADYYCQVWDSTGDHPDVVFGGGTKLTVL
notes: source: ExpiCHO, purified (Protein G resin)
binds: all assays above

From PMC9907207 (Nature Communications, 2023)
